Reference: a protein production outcome set (Wang et al. 2014)

experiment: label from the status in PepcDB records

Protein production, not failed:
MPVAATNSETAMQQVLDNLGSLPSATGAAELDLIFLRGIMESPIVRSLAKAHERLEETKLEAVRDNNLELVQEILRDLAQLAEQSSTAAELAHILQEPHFQSLLETHDSVASKTYETPPPSPGLDPTFSNQPVPPDAVRMVGIRKTAGEHLGVTFRVEGGELVIARILHGGMVAQQGLLHVGDIIKEVNGQPVGSDPRALQELLRNASGSVILKILPSYQEPHLPRQVFVKCHFDYDPARDSLIPCKEAGLRFNAGDLLQIVNQDDANWWQACHVEGGSAGLIPSQLLEEKRKAFVKRDLELTPNSGTLCGSLSGKKKKRMMYLTTKNAEFDRHELLIYEEVARMPPFRRKTLVLIGAQGVGRRSLKNKLIMWDPDRYGTTVPYTSRRPKDSEREGQGYSFVSRGEMEADVRAGRYLEHGEYEGNLYGTRIDSIRGVVAAGKVCVLDVNPQAVKVLRTAEFVPYVVFIEAPDFETLRAMNRAALESGISTKQLTEADLRRTVEESSRIQRGYGHYFDLCLVNSNLERTFRELQTAMEKLRTEPQWVPVSWVY, MPYVPTPKPVVDRMLELADVDETDVLYDLGSGDGRIVIRAARTHGARGVGIEIDPDLVKKARKNAKEAGVADLVEFRQGDLFEADISEATVVTLYLLPSVNQKLRPILFEQLSPGTPVVSHDFDMGRWAPDRTVDLEGDTVYRWTIPEEIPEDLDELEHHHHHH, MQAPRLRVGIFDDGSSTVNMAEKLDSVGHYVTVLHAPEDIRDFELVVIDAHGVEGYVEKLSAFARRGQMFLHTSLTHGITVMDPLETSGGIVMSAHPIGQDRWVASALDELGETIVGLLVGELGGSIVEIADDKRAQLAAALTYAGFLSTLQRDASYFLDEFLGDPDVTSDIVMDSAQQFQALPSLDEVIAQYDSINNPGRQRLFRDLARRQAEISRAQDIELWAIQKEDR

Protein production, failed:
MPTVAPLDIEGHVVSTHFLGDIPLFATAAGTIHRLDGGEKVTEAHDGLLTCIRDPYSATLLSGGEDGRVLRIGHDGSISEIANVPRKWVGVVAGGPQKAVAYGVGKSSFVRLSDCTVKEFKEERTVEAIAFAPKGLRIAVARYNGVTLHWVATAGDPVDLEWKGAHTGVTFSPDGKFLVTTMQENALHGWKMEATKGGMEARHMRMTGYPAKVKSISWSVKGKWLASSGAPAAIVWPFSGKDGPMGKAPEELGSRANIMATNVAFHPVEDVLAIGFIDGMILGVRLADGKEALLRRPGKGAITSMDWSATGNLLAFASEAGDCGIIDISALEHHHHHH, MPTVKSRLVLYFPGFDPLDAAAHHLRYQRAAALAGKTWDVNYAVGPRESRPAGEAFTVEASAGNWSTRSDIVVYDHNDVISQLRDASVWRQIWLGFKAGAGIVSEGGAARYLRHAWRFGLFFIFPFLLMLAGGALAAGIALSPWLFSLPLWLLVVSIPAAALFFVKAFLPFAERFHTLHLYADWRFALAVGRNEPIARDWIEERAALVVTALEEPSDEVLVVSHSMGASLALAVIGRVLELKPDALDGRKLSFATLGGAALQCAFLSSAERLRESIGAIARHPDVTWFDIQCLTDPIHLYRCNTVALTGHKDAPQPKIVPIRFKHSLSPERYKKNKRNFLRMHRQYVLGPDRRSGYDFTLLTAGPLPAASFADLESQSPPAL, MPVILCPAAEESSGLMMKSAETASLTVSHNELQAMAYTDPLTGLGNRNRMRDKVLQISAERASDPAPFTIGIANLDSFKPINDLFGSSAGDEILCQVAHRLRACIPDGALVTRHDGDEFAFVLPLIFERASAEKFGQMIREVLSAPYDLGDRNVRLSASFGFAIYPFAGEDCEELLKSAETALYRSKRRGRGQITVYSREIAQEMKRATQLEQALRNAIISDAIDVHFQPIVSLANNQVVGFEALARWNDPDLGFVSPGVFVPLAEERGFIDALSEALLRKAAEAALSWPRELFLSFNLSSAQLMDPGTSGSILSILGRVGFDPHRLELEITETAVMGSADTAHRIIADLRAAGVRISLDDFGTGQSSLGRLRDFIFDKIKIDRAFVSRINSDRASEHIIKAILSLCEGLELEVVAEGIEDYAEAVKLRTLGCGMGQGYHFGRPADGIATLRFLHENYYDMAPAERVSA, MPVKLAQALANPLFPALDSALRSGRHIGLDELDNHAFLMDFQEYLEEFYARYNVELIRAPEGFFYLRPRSTTLIPRSVLSELDMMVGKILCYLYLSPERLANEGIFTQQELYDELLTLADEAKLLKLVNNRSTGSDVDRQKLQEKVRSSLNRLRRLGMVWFMGHDSSKFRITESVFRFGADVRAGDDPREAQRRLIRDGEAMPIENHLQLNDETEENQPDSGEEE, MPVLATSLVSLKVEEPYLPPRNWESLPSQSGRFLPPTRSSASSSSSSSFVSESSLVRLALNALQGVESSLISIEQLSSAFCSEPADRTFHKIPSLWHRLSSTDALGQILRDIGCFGSLVFLLHKFVDHFTRLNLDVESAVEGQGSCKIGENEEVNNKSCYTLVNQAFAIAVRRVLEGYISGLDTLCASIELRRSSNIVDGSDHGSSRLGSLTNVVHPKITLLEVFLHTRELRTQIEALANICDLYDIALSYCASPWECLITEATTRFHGFYRGSDLLTYLYSQLQVADPTHSAMLKFLFLKTCEPYCEFIRSWMFKAELNDPHKEFIVECRSESTSFSWNKPGISPLKSVRERGGLVPCFLNGFLEPIVRAGQQLQVITKLLELCNLPASGHKNYTDLLPCWTYFSTTSPGYPSPITFSKLHIEVMIKKRDDYYRMMQEKLGDFSEKFEVFPGQVPGAISLPISYGDGDKNSIYFTLDESLLIPSTMAIDLTRDQSGSDSDDQNTEDRWFSEIDASCSSECSSTRDSLEASEVGLLDSQSTLVGPPPNYLSALRFSVASNGNCNQNLVQHSDSGYIDNNLVRQGEKADINHQWVDTKPEESTGVCEDDKFRGPLLIKSWPLGGLPRNPFCVDKKSADDDSEDPRNYSGARMEQRHLMNTDERKLFLNNISTSGSCSKHERRHDVLENCLSSKLDLMKDTKVNYPNDVLSMNPLVRCDFLRKHGNTNKRNQGKSLPWFDFSAVDDPSKTCITRIPVRVPIDFQKESHSPQTDRKSHRHANQERFDVEDPKVSSSQLSSGIKGCAEEKKSNAFGGGRWESMLRRSNNPETSAFSDRRQDSSGTFELPLDFVIDKCLLQEIHLQYPSRYFHLLEIYIFSKLAIKLLEEGFGLQEHLLALRRYHFMELADWADVFVVSLWHHKWLVTEADKRIAEIQGFLESSIQRSSCERDICKDRIFLYKRQGTMHIPPSTIGVRSFDFLRLGYRVDWPISIILTCDALTAYADVFSFLVQVKLAAYVLTDVWCSLKVKDMMDLESVHMAYLSEALRIGIQSTDRVPNDSWTKTLGINTSQNFDKELKELHKCHLRSPKHGKYGLSRFWDYLNFNLYYSDILHDSNIFSLIP, MPVSQQCIKACGFMHPRRLQWLTFSTSPAHPVRLFLAHLYSFASRFVMTTPNPDPLHGVTLEQILRALIEHYEWSGLAERIDIRCFKSDPSIKSSLTFLRKTPWAREKVEALYVKLHRGKGW, MPVYLYYGEDTYSLNQKIDHLVNQNVHAEWKDFNYIKLSGNEKNIAAKVFTEVMTLPFGEGNKIVHTDSDHLIGSLSNEDNNQELENQLSRIPASNILLITSNKKPDSRRTVVKTILKYAQQEEFPLVPCWDKKGIVNLIGKYAAIHQVKFTPDVTDYLVEAIGNNTARVDSEFAKLAVYASEKIISLEEIKQLVSNHNTDYQKLTIAMLRNHSNLAIAQVDKLLDSNEHPLKIVATLTSFFRTWLITKAGVEARLSDIKIAEIAEVKNPKRLYYLKDEIKFVGVQKLKNSLTLLLQLETELKSGTNNLISRIIEICMI, MPWKNTESRYSTMTIALHWLMLVLLAVVYACIEFRGIFPKGSGGRTLIVEAHFMLGLTVFALVWLRLFARAQGVAPKILPTPPHWQRLLSTLMHWALYLFMIAMPILGWLTTSAKGHQVMFYGLDLPLLLAENKPLAKQLQGWHELLGTVGYWLIGLHALAGLYHHYVMRDNTLQRMWRKRGQA, MPWLLPREIAPLHQKALDRYLGSLTERLSDPNVDRNALVREELARLLYGRPYEELLEANPLAAMGLDPEGITFEAEYYAATDLEKFRRVKPLLWFWKVLDLTPLGQSVHSGVAIRRALAPFIFKRVGKNPKFFQNVEFSVGYNLELGDDVVVHRYVFLDDIGGIKIGDRTSLSDYVNVYSHTHHVLASPDVTLKETIIGSGVRITYHATVLAGVRIGDDAMVGTGAVVTKDIPPHAIALGIPARPVRYKVRHDCPYCRKGEPHPSDLVPKLPDRKGNPDYPDFLPPGFGTREAGS, MPYAIDFGTTNTVIARWNEATRQGNLIDLPSLSHPLGDSGPLVPSLLYVENAALGQVAIAREVLDRGRDISTDTRFFKNFKRGIGVAVQGFLPQLDGHTLSLETLGQWYLDKLIRILTEQEGQGPDCLALTVPVDSFESYRHWLSHTCRSWGVEEVRLVDEPTAAALGYGVGDASQILVLDFGGGTVDFSWVQLGDRGQKGRSGFLLKWGGILGGSKAEEKSALAKVLAKAGANLGGSDIDYWISEYFTEAQGLQVSPWIRRLAERLKIALGEAEEATEVYFDDQALESYEFQLRRSDLTEILQQRQFFERLTALWEQVQQTAQRRGLTPANLDAVLVVGGTSQLPMVQDWINAQFPAGKIRNQQPFGAIALGALQIYQGREVQDYLYHSYGVRYWNRRKNSHNWHPIIKNGQTYPMAEPIELTLGASLDNQPSIELIVGELGSSIGATEVYFDGNQLITRVLENQAFTVQPLNDRNGARQIAQLSPPGVPGGDRIKVKFWVDDQRYLRLTVEDLLQQKLLLENQVVAQLRLEHHHHHH, MPYINELRNHKFLIILVDLLCILAAYIAAFYIRYQGFPAKNWESFVSLLPWILLIGLFFISVYELYALDRKNTLWDILVKIFVAVTFMAFLTMAASYFFREFALPRSILFIASVFTIVLLATWKYVFLKLTRRNVVGKVLFIGDDDNTERMISKIKHPMLKGTSIKQVHPNIPMDKINHYMRHADYIILCTSIQKEKKSMIIYHAMECNKLVYVVPTLYELLLQRSSVTPLDDTMLMSVKPFGLTWDQAFIKRAFDVVTSAFTLICTSPLLPISCNFN, MPYLYLLLAIVSEVIGSAFLKSSDGFSKLYPTITTIISYLISFYFLSKTMQHLPLNIAYASWSGLGLVLTTIVSVLIFKEQINLISIISIILIIFGVVLLNTFGSSH, MPYMTTDAKEVSGKSFDYIVVGGGTAGCSLAATLSEKYSVLVIERGGSPFGDPLVEERKYFGYSLLNTDEYSSVAQSFTSVDGIENYRGRVLGGSSAINGGFYSRASDEFVKKAGWDKGLVQESYKWVESKVVFMPELTQWQSVVQFGFLEAGFYPYNGYSLEHTQGTKIGGSIYDQCGKRHTSADLLGFGKPNCITVLLNTTVKSIIFDSSNKTRAVGVRFMESDGNSSKSYKVHVEQHRGEVILAAGALGSPQILLLSGIGPENHLKDFDIPVIVNLKEVGRKMSDNPAISLLVDRFSQNRTLEPPQVAAIAEGYKFILESEVLPTDITTTRISIAAKIAFPKSKGRLKLNSTNPRENPSVKFNYLENKADLDACLEMVLHLQHVARSETVTFFLGTQAHDKLVAGDEELKSFCIKNVRTYYHYHGGCVVGSVVDEEYKVNGVKRLRVVDGSTFEESPGTNPMATVLMLGRYQGIKILKEREEQEDTFLSPQGSPQPQP, MQAGNPMSLQSMLPYVTPPVVGAVIGYVTNDIAIRMLFRPLKPWRVFGIRVPLTPGVIPAGRHEFAATIGRMVGTHLVTGTDVARALGKDSFRRELQEAVSGKLDTLLDRDLGTVGSLLPEGFESWLRDGVDLAARRAGETVAGYLQGEDFRRELSLFLRDLEERVLPRELERILAGETGDAVRAGAGRALAALLQSRGVSRAVAGLVDDKLDELLASERPLRELLPPELVELATAQAREAMPVILGRVAEFVRSPEIRDTFEAKLREGVQQYLANLKGTLGFMAGFISVEKLNSYFPGLVGSVTDEVVRWLGEETTHRRVAAMVDQGLGRILDRPLAATVEQLPYRRVALLRRSIRRGALGVVRRPETAGFLLALAERELVRLAADPSRPILERLAPEDDPSRLREGLVGWLTDRLRDPGIRATLERIVAGRVEEWLFNRPLGRLSARISAEVRRDLDQLIYRQVADLLEREAPPLIDALDVARMVEEKINTLDILAVEGLLLSIMQKHFLYINLFGALLGFVMGSFNVLLMGLGR
